Patent publication US20240270826A1

Columns and labels:
[1] = biological target: SARS-CoV-2 spike protein S on live virus, Alpha variant (SARS-CoV-2 (Alpha variant)) (UniProt P0DTC2); experiment: cell-based or functional assay
[2] = biological target: Human SARS-CoV-2 Gamma (P.1) S (SARS-CoV-2 (Gamma variant)) (UniProt P0DTC2); experiment: flow cytometry SVNA: VHH-Fc inhibits S binding to ACE2 on Vero E6 cells
[3] = biological target: Human SARS-CoV-2 Kappa (B.1.617.1) S (SARS-CoV-2 (Kappa variant)) (UniProt P0DTC2); experiment: as above
[4] = biological target: Human SARS-CoV-2 Delta (B.1.617.2) S (SARS-CoV-2 (Delta variant)) (UniProt P0DTC2); experiment: as above

Q: Which LVNA IC50 [1] does the source give for VHH-72 VHH-Fc (Fc fusion) here?
A: 1.86 nM

Q: And the IC50 [2]?
A: 3.3 nM

Q: What about the IC50 [3] of the same substance?
A: 8.5 nM

Q: What about the IC50 [4] of the same substance?
A: 10.5 nM
